For assay [1], the target named is HLA-B*07:02. In words: IEDB peptide-MHC binding, purified MHC/competitive/radioactivity; filed as Kd, often an IC50 or EC50 that approximates it; ≥ and ≤ were set here for values at or beyond the usual limits of such assays.
The target in a further assay is HLA-A*68:02. The assay is described as above.
The target in assay [2] is HLA-B*15:01. In words: IEDB peptide-MHC binding, purified MHC/competitive/fluorescence; ≥ and ≤ were set here for values at or beyond the usual limits of such assays.
The target in assay [3] is HLA-A*02:01. The description is as above.
The target of the next assay is HLA-B*51:01. Put plainly: IEDB peptide-MHC binding, purified MHC/competitive/radioactivity; filed as Kd, often an IC50 or EC50 that approximates it; ≥ and ≤ were set here for values at or beyond the usual limits of such assays.
The next assay addresses HLA-B*53:01. The description is as above. The settings on record: source organism: Dengue virus 4 Philippines/H241/1956.
Another assay addresses HLA-B*35:01. The description is as above. To be noted: source organism: Dengue virus 4 Philippines/H241/1956.
The target of another assay is HLA-A*24:02. Put plainly: IEDB peptide-MHC binding, purified MHC/competitive/fluorescence; ≥ and ≤ were set here for values at or beyond the usual limits of such assays.
The target in assay [4] is HLA-B*07:02. In words: IEDB peptide-MHC binding, purified MHC/direct/fluorescence; filed as Kd, often an IC50 or EC50 that approximates it; ≥ and ≤ were set here for values at or beyond the usual limits of such assays.
Assay [5] has as its target HLA-B*15:01. The description is as above.
The next assay addresses HLA-A*03:01. Described as above.
The next assay addresses HLA-B*08:01. The assay is described as above.
The target in another assay is HLA-B*58:01. The description is as above.
The target of the next assay is HLA-A*26:01. The assay is described as above.
A further assay has as its target HLA-A*31:01. Described as above.
A further assay has as its target HLA-A*11:01. Described as above.
Assay [6] has as its target HLA-A*02:01. The description is as above.
In the next assay the target is HLA-B*40:01. Described as above.
The next assay deals with HLA-A*24:03. Described as above.
A further assay has as its target HLA-A*69:01. The description is as above.
For the next assay, the target named is HLA-A*01:01. Described as above.
In the next assay the target is HLA-B*27:05. The description is as above.
For a further assay, the target named is HLA-B*44:02. Described as above.
For a further assay, the target named is HLA-B*57:01. The assay is described as above. To be noted: source organism: Giardia lamblia ATCC 50803.
Another assay deals with HLA-A*32:01. In words: IEDB peptide-MHC binding, purified MHC/competitive/radioactivity; filed as Kd, often an IC50 or EC50 that approximates it; ≥ and ≤ were set here for values at or beyond the usual limits of such assays. The settings on record: source organism: Vaccinia virus WR.
Where [7] appears, read: source organism: Dengue virus 2 Jamaica/1409/1983.
Setting [8] is: source organism: Zaire ebolavirus.
Setting [9] is: source organism: Dengue virus 4 Philippines/H241/1956.
Where [10] appears, read: source organism: Dengue virus 3 Martinique/1243/1999.
Where [11] appears, read: source organism: Pseudomonas aeruginosa UCBPP-PA14.
The mark [12] stands for this setting: source organism: Shigella flexneri.
Where [13] appears, read: source organism: Vaccinia virus.
Setting [14] is: source organism: Dengue virus 1 Brazil/97-11/1997.
Setting [15] is: source organism: Sudan ebolavirus.
The mark [16] stands for this setting: source organism: Giardia lamblia ATCC 50803.
Where [17] appears, read: source organism: Vibrio cholerae.
Where [18] appears, read: source organism: Histophilus somni.
Where [19] appears, read: source organism: Pasteurella multocida.
The mark [20] stands for this setting: source organism: Vaccinia virus Copenhagen.

pIC50, pKd: −log10 of the molar value. Where only a bound is given, the exact number is not on record here.

Turning to NPNMIDKTPV, the pKd in the assay with HLA-B*07:02 [1] (source organism: Dengue virus 4 Thailand/0348/1991) was 6.40.

Consider LAANAICSAV, for which the pKd in the assay with HLA-A*68:02 (setting [7]) is 8.04.

Take HMMKDEPVV: the results for the pIC50 with HLA-B*15:01 [2] (setting [8]) and with HLA-A*02:01 [3] (setting [8]) were 4.33 and 5.06, respectively.

Turning to TTPFGQQRV, the pKd with HLA-A*68:02 (setting [9]) was 6.99.

In turn, QQKNSQKGQ showed a pIC50 with HLA-B*15:01 [2] (setting [8]) not above 4.03.

Turning to APIQDEERDI, the negative-log Kd (pKd) with HLA-B*07:02 [1] (setting [10]) was 5.30; in the assay with HLA-B*51:01 (setting [10]), not above 4.16.

Regarding TTATITPQA, in the assay with HLA-A*68:02 (source organism: Dengue virus 1 Nauru/West Pac/1974), the pKd was 8.95.

Regarding IPVTMTLWYM, the pKd with HLA-B*07:02 [1] (setting [9]) was 6.13; with HLA-B*53:01 it was 7.16; with HLA-B*35:01 it was 6.81.

For the sequence LPIRYQTPAV, the pKd with HLA-B*07:02 [1] (setting [9]) is 7.57; with HLA-B*51:01 (setting [9]) it was 6.70; with HLA-B*35:01, 6.96.

For the sequence GQQFYWPVM, the pIC50 was 6.94 in the assay with HLA-A*24:02 (setting [8]), 5.82 with HLA-B*15:01 [2] (setting [8]) and 5.24 with HLA-A*02:01 [3] (setting [8]).

For ASDDLEHWQ, the pKd with HLA-B*07:02 [4] (setting [11]), with HLA-B*15:01 [5] (setting [11]), with HLA-A*03:01 (setting [11]), in the assay with HLA-B*08:01 (setting [11]), with HLA-B*58:01 (setting [11]) and with HLA-A*26:01 (setting [11]) was not above 4.70 each time. Also, the pKd with HLA-A*31:01 (setting [11]), in the assay with HLA-A*11:01 (setting [11]), in the assay with HLA-A*02:01 [6] (setting [11]), in the assay with HLA-B*40:01 (setting [11]), in the assay with HLA-A*24:03 (setting [11]) and with HLA-A*69:01 (setting [11]) was not above 4.70 throughout. The pKd with HLA-A*01:01 (setting [11]) and with HLA-B*27:05 (setting [11]) was not above 4.70 each time.

As for QMKDCMREL, the pKd with HLA-A*68:02 (source organism: Homo sapiens) is not above 4.22.

As for DRLHPPNKL, the pKd with HLA-B*07:02 [4] (setting [12]), with HLA-B*15:01 [5] (setting [12]), in the assay with HLA-A*03:01 (setting [12]), with HLA-B*08:01 (setting [12]), with HLA-B*58:01 (setting [12]) and with HLA-A*26:01 (setting [12]) was not above 4.70 throughout. The pKd is not above 4.70 with HLA-A*31:01 (setting [12]); not above 4.70 with HLA-A*11:01 (setting [12]); not above 4.70 with HLA-A*02:01 [6] (setting [12]); 5.37 with HLA-B*40:01 (setting [12]); not above 4.70 with HLA-A*69:01 (setting [12]); not above 4.70 with HLA-A*01:01 (setting [12]). Further, the pKd in the assay with HLA-B*27:05 (setting [12]) and with HLA-B*44:02 (setting [12]) was not above 4.70 each time.

Take ELEKSKRAL: the pKd with HLA-A*68:02 (source organism: Homo sapiens) was not above 4.27.

On to FVEGVSGGAW, for which, in the assay with HLA-B*53:01, the pKd was 6.68.

With SLAKHGEYA, the pIC50 with HLA-B*15:01 [2] (setting [8]) was not above 3.90; with HLA-A*02:01 [3] (setting [8]), 5.14.

With VFAPKQKMF, the pIC50 in the assay with HLA-A*24:02 (setting [13]) is 7.58; with HLA-B*15:01 [2] (setting [13]) it was 4.85.

In the case of AKHGEYAPF, the pIC50 is 4.20 with HLA-A*24:02 (setting [8]) and not above 4.11 in the assay with HLA-B*15:01 [2] (setting [8]).

In the case of TSLSMTCIAV, in the assay with HLA-A*68:02 (setting [14]), the pKd is 4.87.

For the sequence LLQLPRDKF, the pIC50 was 5.32 in the assay with HLA-A*24:02 (setting [15]), 4.97 with HLA-B*15:01 [2] (setting [15]) and 4.88 with HLA-A*02:01 [3] (setting [15]).

As for SLAIDAYPL, the pKd in the assay with HLA-B*07:02 [4] (source organism: SARS-CoV1) is not above 4.48; with HLA-B*15:01 [5] (source organism: SARS-CoV1) it was 5.97; with HLA-B*08:01 (source organism: SARS-CoV1), 5.04; in the assay with HLA-A*02:01 [6] (source organism: SARS-CoV1), 6.84; with HLA-B*40:01 (source organism: SARS-CoV1) it was not above 4.50; with HLA-A*69:01 (source organism: SARS-CoV1), 6.57.

On to YMYAATNTH, for which the negative-log Kd (pKd) was 7.40 with HLA-B*15:01 [5] (setting [16]), not above 4.70 in the assay with HLA-B*58:01 (setting [16]) and not above 4.70 with HLA-B*57:01.

With LQSPPIREA, the values for the pIC50 in the assay with HLA-B*15:01 [2] (setting [15]) and with HLA-A*02:01 [3] (setting [15]) were 4.42 and 4.84, respectively.

As to SKNNIGIEY, in the assay with HLA-B*15:01 [2] (setting [13]), the negative logarithm of the IC50 (pIC50) is not above 4.06.

QVMLLILCV: in the assay with HLA-A*68:02 (setting [7]), the pKd was 5.76.

With LETDLRSEF, in the assay with HLA-B*15:01 [2] (setting [13]), the pIC50 was 4.32.

As to GVPPKVVNY, the pIC50 with HLA-B*15:01 [2] (setting [8]) was not above 3.68; with HLA-A*02:01 [3] (setting [8]), not above 3.70.

As to LLLWFNYLF, in the assay with HLA-A*32:01, the negative logarithm of the Kd (pKd) was 8.84. Besides, the pIC50 with HLA-B*15:01 [2] (source organism: Variola virus) was not above 2.53; with HLA-A*02:01 [3] (source organism: Variola virus), 6.90.

As to AENKKFKLH, the pKd with HLA-B*07:02 [4] (setting [17]), in the assay with HLA-B*15:01 [5] (setting [17]), in the assay with HLA-A*03:01 (setting [17]), in the assay with HLA-B*08:01 (setting [17]), in the assay with HLA-B*58:01 (setting [17]) and with HLA-A*26:01 (setting [17]) was not above 4.70 throughout. The pKd was not above 4.70 with HLA-A*31:01 (setting [17]); not above 4.70 with HLA-A*11:01 (setting [17]); not above 4.70 with HLA-A*02:01 [6] (setting [17]); 5.57 with HLA-B*40:01 (setting [17]); not above 4.70 with HLA-A*69:01 (setting [17]); not above 4.70 with HLA-A*01:01 (setting [17]). Also, the pKd in the assay with HLA-B*27:05 (setting [17]) and in the assay with HLA-B*44:02 (setting [17]) was not above 4.70 in each case.

As for RPAKNGTVMD, the negative-log Kd (pKd) with HLA-B*07:02 [1] (setting [14]) was 6.50.

As to QYPAFVLFI, the pKd with HLA-B*07:02 [4] (setting [18]), with HLA-B*15:01 [5] (setting [18]), with HLA-A*03:01 (setting [18]), with HLA-B*08:01 (setting [18]), with HLA-B*58:01 (setting [18]) and with HLA-A*26:01 (setting [18]) was not above 4.70 in each case. For the same sequence, the pKd with HLA-A*11:01 (setting [19]) was 5.55; with HLA-A*02:01 [6] (setting [18]), not above 4.70; with HLA-B*40:01 (setting [18]), not above 4.70; with HLA-A*24:03 (setting [19]), 8.72; in the assay with HLA-A*69:01 (setting [18]) it was not above 4.70; in the assay with HLA-A*01:01 (setting [18]), not above 4.70. In addition, the pKd in the assay with HLA-B*27:05 (setting [18]) was not above 4.70.

As to TIAVSTANI, the pKd in the assay with HLA-A*68:02 (setting [9]) is 7.59.

For SPPPVGKAEL, the pKd in the assay with HLA-B*07:02 [1] (setting [7]) is 7.17.

In the case of ISIKLTDSL, the pIC50 with HLA-A*24:02 (setting [20]) is 5.44; with HLA-B*15:01 [2] (setting [20]), 5.25; with HLA-A*02:01 [3] (setting [20]), 5.14.

For the sequence FGMFTTNIW, the pKd in the assay with HLA-B*53:01 is 7.69.

Consider RPRGHREFC, for which the pKd with HLA-B*07:02 [4] (setting [16]) was 7.01; with HLA-B*15:01 [5] (setting [16]) it was not above 4.70; in the assay with HLA-A*03:01 (setting [16]), not above 4.70; with HLA-B*08:01 (setting [16]), 5.09; with HLA-B*58:01 (setting [16]), not above 4.70; with HLA-A*26:01 (setting [16]), not above 4.70. Moreover, the pKd in the assay with HLA-A*31:01 (setting [16]), in the assay with HLA-A*11:01 (setting [16]), with HLA-A*02:01 [6] (setting [16]), in the assay with HLA-B*40:01 (setting [16]), with HLA-A*24:03 (setting [16]) and with HLA-A*69:01 (setting [16]) was not above 4.70 each time. The pKd in the assay with HLA-A*01:01 (setting [16]), with HLA-B*27:05 (setting [16]) and in the assay with HLA-B*44:02 (setting [16]) was not above 4.70 throughout.

For the sequence LMHNQDGLI, the pIC50 with HLA-A*24:02 (setting [8]) is 4.61; with HLA-B*15:01 [2] (setting [8]) it was 4.17; in the assay with HLA-A*02:01 [3] (setting [8]) it was 5.77.

The values above are taken from the Immune Epitope Database (IEDB).
